According to article PMC2132682:

Target: GST-NRX (cytoplasmic domain of Neurexin) (Drosophila) (UniProt Q94887)
Assay: pull-down

Chain of UniProt Q94887 (Q94887 1239-1284): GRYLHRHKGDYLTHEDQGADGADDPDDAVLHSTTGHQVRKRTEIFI

32P-labeled Coracle (cDNA3 isoform, recombinant) (natural protein)
% relative binding: 100%

unlabeled Coracle (cDNA3 isoform, recombinant) (natural protein)
% relative binding of 32P-COR to NRX with the competitor: 36.6%
